Laboratory results published in publication PMC7083852, “Ultrafast in-gel detection by fluorescent super-chelator probes with HisQuick-PAGE” (Communications Biology, 2020).

Biological target: T1, Thermus thermophilus multidrug-resistance protein A (TmrA), C-terminal His10-tag (Thermus thermophilus, UniProt Q72J05 1-600)
T1 construct: Thermus thermophilus multidrug-resistance protein A (TmrA), subunit of the heterodimeric ABC transporter TmrAB; Produced and purified together with TmrB as the heterodimer TmrAB; also called His10-tagged subunit of TmrAB; not shown: His10, C-terminal, kept
T1 sequence (looked up): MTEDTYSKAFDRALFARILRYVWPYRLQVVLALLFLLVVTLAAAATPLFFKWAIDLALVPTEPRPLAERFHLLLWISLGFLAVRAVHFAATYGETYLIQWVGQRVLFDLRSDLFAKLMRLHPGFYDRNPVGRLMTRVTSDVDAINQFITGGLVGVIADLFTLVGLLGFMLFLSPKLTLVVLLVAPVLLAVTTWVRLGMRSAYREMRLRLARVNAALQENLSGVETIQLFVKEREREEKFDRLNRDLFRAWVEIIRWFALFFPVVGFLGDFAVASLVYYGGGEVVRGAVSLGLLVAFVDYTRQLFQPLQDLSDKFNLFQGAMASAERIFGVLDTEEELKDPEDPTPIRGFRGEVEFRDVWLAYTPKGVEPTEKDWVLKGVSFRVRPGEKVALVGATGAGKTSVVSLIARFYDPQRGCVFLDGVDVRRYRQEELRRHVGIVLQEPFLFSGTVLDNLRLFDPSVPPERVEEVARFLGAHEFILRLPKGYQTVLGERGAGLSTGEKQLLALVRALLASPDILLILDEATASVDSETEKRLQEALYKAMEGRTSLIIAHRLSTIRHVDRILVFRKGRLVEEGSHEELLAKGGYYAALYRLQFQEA
Assay: native gel or EMSA; blue native PAGE of purified TmrAB (1.3 µg, 500 nM; produced in E. coli and purified as a whole via His10 on TmrA and by SEC) in DDM or reconstituted in MSP1D1 nanodiscs; labelled with tris- or hexaNTA-Alexa647 (450 nM), in-gel fluorescence
Conditions: both partners purified

binding result: binds
B1: Thermus thermophilus multidrug-resistance protein B (TmrB) (natural protein, UniProt Q72J04 1-578, looked up)
chain: MTGRSAAPLLRRLWPYVGRYRWRYLWAVLAGLVSIFFFVLTPYFLRLAVDAVQAGRGFGVYALAIVASAALSGLLSYAMRRLAVVASRQVEYDLRRDLLHHLLTLDRDFYHKHRVGDLMNRLNTDLSAVREMVGPGILMGSRLSFLVLLAFLSMYAVNARLAFYLTLILPGIFLAMRFLLRLIDRRYREAQEVFDRISTLAQEAFSGIRVVKGYALERRMVAWFQDLNRLYVEKSLALARVEGPLHALLGFLMGFAFLTVLWAGGAMVVRGELSVGELVQFNAYLAQLTWPILGLGWVMALYQRGLTSLRRLFELLDEKPAIRDEDPLPLALEDLSGEVRFEGVGLKRDGRWLLRGLTLTIPEGMTLGITGRTGSGKSLLAALVPRLLDPSEGRVYVGGHEARRIPLAVLRKAVGVAPQEPFLFSETILENIAFGLDEVDRERVEWAARLAGIHEEILAFPKGYETVLGERGITLSGGQRQRVALARALAKRPKILILDDALSAVDAETEARILQGLKTVLGKQTTLLISHRTAALRHADWIIVLDGGRIVEEGTHESLLQAGGLYAEMDRLQKEVEA
notes: Thermus thermophilus multidrug-resistance protein B (TmrB), subunit of the heterodimeric ABC transporter TmrAB; Produced and purified together with TmrA as the heterodimer TmrAB; also called subunit of TmrAB
